A short description of data set [1]: Gel filtration, oligomeric state in solution. It counts as physicochemical. To be noted: Superdex200 10/300 GL, 20 mM Tris pH 7.5, 150 mM NaCl, 50 μM ZnCl2, 1 mM DTT. How it is done: Supplementary Fig. 3 Superimposition of gel-filtration curves of PHD6 and ePHD6 domains of MLL3 and MLL4. Gel filtration chromatography of MLL3 ePHD6 (red), PHD6 (pink), MLL4 ePHD6 (brown), PHD6 (green) and protein molecular weight standards (blue, Bio-Rad). Samples were loaded to the Superdex200 10/300 GL (GE Healthcare) column in the buffer containing 20 mM Tris, pH 7.5, 150 mM NaCl, 50 μM ZnCl2,and1mMDTT. […]

Data set [2] concerns recombinant nucleosomes (histone H3K4). Description: In vitro histone methyltransferase (HMT) assay of MLL3/MLL4 constructs. Format: biochemical. The conditions noted are these: recombinant nucleosomes 0.5 μg, 2.5 μCi [3H]-SAM, 30 °C, 16 h, autoradiography (Fig. 3b, c). How it is done: Mammalian expression plasmids encoding different fusions of MLL3 PHD and SET domains were subcloned into the pFLAG-CMV2 vector (Sigma-Aldrich, E7033) and were transiently expressed in HEK 293T cells (ATCC® ACS-4500™) by using Lipofectamine 2000 (ThermoFisher Scientific, 11668027) according to manufacturer’s protocol. Two days after transfection, cells were harvested and then lysed by mammalian lysis buffer (20 mM Tris-HCl, 137 mM NaCl, 1.5 mM MgCl2, 1 mM EDTA, 10% glycerol, 1% Triton X-100, 0.2 mM PMSF, 1 μg mL^−1 aprotinin, 2.5 μg mL^−1 leupeptin, and 1 μg mL^−1 pepstatin at pH 8.0). FLAG immunoprecipitation (FLAG IP) was performed in a similar way as described previously. In brief, total cell lysates were incubated with anti-FLAG M2 Affinity Gel (Sigma-Aldrich, A2220) in 4 °C for 5 h and were extensively washed with BC500 (20 mM Tris-HCl, 500 mM KCl, 1.5 mM MgCl2, 0.2 mM EDTA, 10% glycerol, 0.2 mM PMSF at pH 8.0). […]
HMT assay was performed according to a previously described method with minor modifications. […] The signals for HMT activity were detected by autoradiography. The input of the MLL3/4 proteins and nucleosomes were detected by mouse monoclonal anti-FLAG M2 (Sigma-Aldrich, F3165, 1:1000) and rabbit polyclonal anti-H3 antibody (Abcam, ab1791, 1:1000), respectively. […]

These results are taken from article PMC6318328, “Structural insights into trans-histone regulation of H3K4 methylation by unique histone H4 binding of MLL3/4” (Nature Communications, 2019).

B1: MLL3 ePHD6: extended PHD6 domain of MLL3 (protein)
chain: VWCRHCGATSAGLRCEWQNNYTQCAPCASLSSCPVCYRNYREEDLILQCRQCDRWMHAVCQNLNTEEEVENVADIGFDCSMCRPYMPASN
modifications: left off: GST, N-terminal, cleaved | His tag, N-terminal, cleaved
Regarding B1, the “oligomeric state in solution” value in data set [1] is “monomer in solution”.

B2: MLL4 ePHD6: extended PHD6 domain of MLL4 (protein)
chain: VSCMQCGAASPGFHCEWQNSYTHCGPCASLVTCPICHAPYVEEDLLIQCRHCERWMHAGCESLFTEDDVEQAADEGFDCVSCQPYVVKPV
modifications: left off: GST, N-terminal, cleaved | His tag, N-terminal, cleaved
For the molecule B2, in data set [1], the “oligomeric state in solution” value was “dimer in solution”.

B3: MLL3_C: C terminus of MLL3 with the catalytic SET domain (protein)
chain: DHTFRVGSLIFHTIGQLLPQQMQAFHSPKALFPVGYEASRLYWSTRYANRRCRYLCSIEEKDGRPVFVIRIVEQGHEDLVLSDISPKGVWDKILEPVACVRKKSEMLQLFPAYLKGEDLFGLTVSAVARIAESLPGVEACENYTFRYGRNPLMELPLAVNPTGCARSEPKMSAHVKRFVLRPHTLNSTSTSKSFQSTVTGELNAPYSKQFVHSKSSQYRKMKTEWKSNVYLARSRIQGLGLYAARDIEKHTMVIEYIGTIIRNEVANRKEKLYESQNRGVYMFRMDNDHVIDATLTGGPARYINHSCAPNCVAEVVTFERGHKIIISSSRRIQKGEELCYDYKFDFEDDQHKIPCHCGAVNCRKWMN
modifications: left off: FLAG, end not stated, kept
notes: C terminus of MLL3 with the catalytic SET domain
For the molecule B3, in data set [2], the nucleosomal methyltransferase activity result is on record as “did not show any detectable nucleosomal methylation activity”.
